We go through 2 variants from IntAct's records for PubMed 19798056.

To fix the notation:
B1: TOM1-like protein 1 (Homo sapiens), O75674 (parent)
chain: MAFGKSHRDPYATSVGHLIEKATFAGVQTEDWGQFMHICDIINTTQDGPKDAVKALKKRISKNYNHKEIQLTLSLIDMCVQNCGPSFQSLIVKKEFVKENLVKLLNPRYNLPLDIQNRILNFIKTWSQGFPGGVDVSEVKEVYLDLVKKGVQFPPSEAEAETARQETAQISSNPPTSVPTAPALSSVIAPKNSTVTLVPEQIGKLHSELDMVKMNVRVMSAILMENTPGSENHEDIELLQKLYKTGREMQERIMDLLVVVENEDVTVELIQVNEDLNNAILGYERFTRNQQRILEQNKNQKEATNTTSEPSAPSQDLLDLSPSPRMPRATLGELNTMNNQLSGLNFSLPSSDVTNNLKPSLHPQMNLLALENTEIPPFAQRTSQNLTSSHAYDNFLEHSNSVFLQPVSLQTIAAAPSNQSLPPLPSNHPAMTKSDLQPPNYYEVMEFDPLAPAVTTEAIYEEIDAHQHKGAQNDGD

The variants in the first assay derive from B1. Particulars: with grb2_human GRB2, P62993.
Sequence of grb2_human GRB2, P62993 (P62993 whole entry, looked up): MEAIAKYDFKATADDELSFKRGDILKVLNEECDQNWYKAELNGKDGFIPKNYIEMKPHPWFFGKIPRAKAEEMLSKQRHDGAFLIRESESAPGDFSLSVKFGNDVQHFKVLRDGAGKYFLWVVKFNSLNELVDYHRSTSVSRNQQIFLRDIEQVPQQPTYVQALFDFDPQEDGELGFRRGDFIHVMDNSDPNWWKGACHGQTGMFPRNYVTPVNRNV
On to Y392F, for which the “effect of a mutation on the interaction” value was “disrupting interaction”.

The next assay covers variants of B1. Particulars: with grb2_human GRB2, P62993. The source holds these as a separate data set.
As to Y460F, the “effect of a mutation on the interaction” value is on record as “disrupting interaction”.
